Legend:
[1] = tested on: BcUGAepi (UDP-glucuronic acid 4-epimerase); settings: tightly bound cofactor of the isolated enzyme
[2] = biological target: T1, BcUGAepi (UDP-glucuronic acid 4-epimerase) (Bacillus cereus group, UniProt Z9OZ01HDE8); assay: HPLC of cofactor released from denatured enzyme; type: binding
T1 construct: C-terminal Strep-tag kept; synthetic gene in pET17b; expressed in E. coli Lemo21(DE3); monomer 37003 g/mol

[3] = tested on: BcUGAepi (UDP-glucuronic acid 4-epimerase); settings: 1 mM UDP-GlcA; 135 µM enzyme; 100 µM NAD+; pH 7.6; 23 °C
[4] = tested on: O=C(O)[C@H]1O[C@H](OP(=O)(O)OP(=O)(O)OC[C@H]2O[C@@H](n3ccc(=O)[nH]c3=O)[C@H](O)[C@@H]2O)[C@H](O)[C@@H](O)[C@H]1O; assay: purified protein; settings: reverse epimerization, 50 µM NAD+, 50 mM sodium phosphate, 100 mM NaCl, pH 7.6, room temperature (23 °C)
[5] = tested on: O=C(O)[C@H]1O[C@H](OP(=O)(O)OP(=O)(O)OC[C@H]2O[C@@H](n3ccc(=O)[nH]c3=O)[C@H](O)[C@@H]2O)[C@H](O)[C@@H](O)[C@@H]1O; assay: purified protein; settings: forward epimerization, 50 µM NAD+, 50 mM sodium phosphate, 100 mM NaCl, pH 7.6, room temperature (23 °C)
[6] = biological target: Tyr149 (UniProt position 149, TPQSPYGKSKL); assay: kinetics; settings: cited from earlier work
[7] = biological target: UDP-glucuronic acid 4-epimerase from Bacillus cereus HuA2-4 (Bacillus cereus HuA2-4); assay: SEC; gel filtration of the isolated protein (HiLoad 16/60 Superdex 200, calibrated with a gel filtration standard mixture); details in the Supporting information
[8] = biological target: Tyr149 (position 149, …); assay: kinetics; settings: 23 °C, 50 mM Na2HPO4, 100 mM NaCl, pH adjusted with NaOH or HCl, Enzyme-NAD+ with saturating UDP-GlcA (1 mM) and 100 µM added NAD+. The kcat profile reports on the enzyme/NAD+/UDP-GlcA complex.

**Q.** What does the source list for `NC(=O)c1ccc[n+]([C@@H]2O[C@H](COP(=O)(O)OP(=O)(O)OC[C@H]3O[C@@H](n4cnc5c(N)ncnc54)[C@H](O)[C@@H]3O)[C@@H](O)[C@H]2O)c1` [NAD^+]?
**A.** co-purified cofactor [1]: The purified Y149F variant (Fig. S19) contained protein‐bound NAD^+ as the wild‐type enzyme; HPLC of cofactor released from denatured enzyme ([2]; co-purified, tightly bound, one per subunit): we identified the cofactor as NAD, not NADP

**Q.** With `O=C(O)[C@H]1O[C@H](OP(=O)(O)OP(=O)(O)OC[C@H]2O[C@@H](n3ccc(=O)[nH]c3=O)[C@H](O)[C@@H]2O)[C@H](O)[C@@H](O)[C@@H]1O` [UDP-GlcA] as the molecule, how does the “HPLC time course of conversion” value [3] read?
**A.** the Y149F variant converted UDP‐GlcA into UDP‐GalA without trace formation of side products

**Q.** For `NC(=O)C1=CN([C@@H]2O[C@H](COP(=O)(O)OP(=O)(O)OC[C@H]3O[C@@H](n4cnc5c(N)ncnc54)[C@H](O)[C@@H]3O)[C@@H](O)[C@H]2O)C=CC1` [NADH], which “HPLC of cofactor released from denatured enzyme” value ([2]; minor co-purified reduced form of the bound cofactor) is on record?
**A.** NADH was also present, the content varying slightly

**Q.** With “BcUGAepi (UDP-glucuronic acid 4-epimerase) (Bacillus cereus group)” as the molecule, how does the Km [4] read?
**A.** 890 ± 130 µM

**Q.** What about the kcat [4] of the same molecule?
**A.** 0.32 ± 0.02 s⁻¹

**Q.** What about the Km [5] of the same molecule?
**A.** 360 ± 20 µM

**Q.** And the kcat [5]?
**A.** 0.25 ± 0.01 s⁻¹

**Q.** For “UDP-galactose 4-epimerase (GALE) (Escherichia coli)”, which pKa [6] is on record?
**A.** 6.9

**Q.** Which stoichiometry N [7] does the source give for “UDP-glucuronic acid 4-epimerase from Bacillus cereus HuA2-4 (enzyme)” here?
**A.** 2

B1: UDP-glucuronic acid 4-epimerase (BcUGAepi) (Bacillus cereus HuA2-4) (protein)
chain: MKILVTGAAGFIGSHLCQALLKNSAYHVVGIDHFIGPTPATLKTGNIQSLELNSRFQFIREDILNTDLSKLLQDIDVVYHLAAIPGVRTSWGKDFQPYVTNNIMVTQQLLEACKHIKLDKFIHISTSSVYGEKSGAVSEDLLPIPLSPYGVTKLSGEHLCHVYHKNFHIPIVILRYFTVYGPRQRPDMAFHRLIKQMLEDKPLTIFGDGTQTRDFTYIDDCIRGTVAALETKKNIIGEVINIGGKEQASILDIISMLEKISGKSATKNFLKSVPGEPKQTWADISKASTLLQYSPTVSLSDGLEAEYDYIKQLYKGDAAWSHPQFEK
**Q.** Which pKa [8] does the source give for B1 here?
**A.** 5.90 (±0.05)

From PMC7984243, “Mechanistic characterization of UDP‐glucuronic acid 4‐epimerase” (The Febs Journal, 2020)
